In patent US20040126882, “Regulatable, catalytically active nucleic acids” (published 2004):

T1: Cyt18 (mitochondrial tyrosyl-tRNA synthetase, CYT-18) (Neurospora crassa, UniProt P12063 P12063:33-669)
T1 sequence: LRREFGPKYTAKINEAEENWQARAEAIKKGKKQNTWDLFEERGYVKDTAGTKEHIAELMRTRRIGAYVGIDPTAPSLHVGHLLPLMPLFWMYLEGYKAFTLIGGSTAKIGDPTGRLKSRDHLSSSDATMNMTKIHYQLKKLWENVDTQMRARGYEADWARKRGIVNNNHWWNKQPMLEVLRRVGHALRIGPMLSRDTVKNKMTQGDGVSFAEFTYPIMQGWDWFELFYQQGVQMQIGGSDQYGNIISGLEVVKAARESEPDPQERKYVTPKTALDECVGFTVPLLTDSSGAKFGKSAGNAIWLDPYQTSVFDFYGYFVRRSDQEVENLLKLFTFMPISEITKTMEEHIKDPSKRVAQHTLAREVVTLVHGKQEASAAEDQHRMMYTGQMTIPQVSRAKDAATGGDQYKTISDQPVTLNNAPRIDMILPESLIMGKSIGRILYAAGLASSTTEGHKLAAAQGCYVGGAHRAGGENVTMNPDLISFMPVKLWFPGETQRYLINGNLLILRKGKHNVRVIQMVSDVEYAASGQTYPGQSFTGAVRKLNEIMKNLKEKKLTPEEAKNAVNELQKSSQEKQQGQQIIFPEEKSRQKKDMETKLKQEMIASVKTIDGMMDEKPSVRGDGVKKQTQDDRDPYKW


Experiments:
[1] = biological target: T1, Cyt18 (mitochondrial tyrosyl-tRNA …); test: competition; greatest reduction of Cyt18 activation of cyt7-2; 3 uM competitor; conditions: chain copies: 2
Experimental: (§1) Ligation assays. In one example, 10 pmol of [³²P]-body-labeled ribozyme and 20 pmol effector oligonucleotide were denatured for 3 min at 70° C. in 5 μl water. The RNA mixture was cooled to room temperature followed by addition of ligation buffer and target protein (20 pmol unless otherwise stated, or water in place of ligand, in the case of […]). After a 5 min equilibration at room temperature, reactions were initiated by the addition of 20 pmol substrate oligonucleotide (S28A) in a final volume of 15 μl. Reactions were incubated at 25° C., and 4 μl aliquots were removed at three appropriate time points and terminated by the addition of 18 μl of SDS stop mix (100 mM EDTA, 80% formamide, 0.8% SDS, 0.05% bromophenol blue, 0.05% xylene cyanol). Samples were denatured for 3 min at 70° C., ligated and unligated species were separated from one another on 8% polyacrylamide gels containing 0.1% SDS, and the amounts of products formed were determined using a Phosphorimager (Molecular Dynamics, Sunnyvale, Calif.). Assays performed over a broad range of protein concentrations (e.g, FIG. 21) differed from typical reaction conditions in that only 1 pmol ribozyme was present in a 10 μl final volume.
(§2) Competition assays. Ligation assays were performed as described above, using 10 pmol of [³²P]-body-labeled ribozyme (cyt7-2 or lys11-2; […]) and 20 pmol effector oligonucleotide (2 μM). […]

hen egg white lysozyme [2] = biological target: T2, hen egg white lysozyme (UniProt P00698 P00698:19-147); test: competition; no appreciable inhibition of lys11-2 activation
Experimental: as §1, §2

hen egg white lysozyme [3] = biological target: T2, hen egg white lysozyme; test: competition
Experimental: as §1
(§3) Competition assays. Ligation assays were performed as described above, using 10 pmol of [³²P]-body-labeled ribozyme (cyt7-2 or lys11-2; […]) and 20 pmol effector oligonucleotide (2 μM). The denatured and annealed RNA mixture was combined with ligation buffer, 20 pmol protein (Cyt18, lysozyme, or water in the case of (−) protein samples; 2 μM), and 30 pmol of denatured and annealed competitor RNA (3 μM).

[4] = biological target: T1, Cyt18 (mitochondrial tyrosyl-tRNA …); test: competition; conditions: chain copies: 2
Experimental: as §1, §3

Binder	binding result [1]	binding result (hen egg white lysozyme [2])	binding result (hen egg white lysozyme [3])	binding result [4]
ND1 group I intron (ssRNA) RNA: GACUAAUAUGAUUUGGUCUCAUUAAAGAUCACAAAUUGCUGGAAACUCCUUUGAGGCUAGGACAAUCAGCAAGGAAGUUAACAUAUAAUGUUAAAACCUUCAGAGACUAGACGUGAUCAUUUAAUAGACGCCUUGCGGCUCUUAUUAGAUAAGGUAUAGUCCAAAUUUGUAUGUAAAUACAAAAUGAUAAAAAAAAAUGAAAUCAUAUGGG	binds	no binding	–	–
c1 (ssRNA) RNA: GGGAAUGGAUCCACAUCUACGAAUUCAUCAGGGCUAAAGAGUGCAGAGUUACUUAGUUCACUCCAGACUUGACGAAGCUU	–	–	binds	–
B17 (ssRNA) RNA: GGGAAUGGAUCCACAUCUACGAAUUCGUAGCGUAGAGUAUGAGAGAGCCAAGGUCAGGUUCACUCCAGACUUGACGAAGCUU	–	–	no binding	–
M12 (ssRNA) RNA: GGGAAUGGAUCCACAUCUACGAAUUCGAGUCGAGAACUGGUGCGAAUGCGAGUAAGUUCACUCCAGACUUGACGAAGCUU	–	–	no binding	binds
